Experimental findings from US20030139361A1, “Drug for gene therapy” (priority 2000, published 2003) are described below.

Test [1] deals with liver graft, DA rat to LEW rat (acute rejection). The experiment in a line: Immunosuppressive activity of the IDO protein using acute rejection model (sympatric liver transplantation, DA rat to LEW rat). Format: in vivo. The conditions noted are these: for average days of take (survival): consecutive days through the tail vein after liver transplantation, N = 6. Here is the method:
As for the animals, male LEW and DA rats (200-350 g) were used. In the administration of the aforementioned gene therapeutic agents, immediately after Ringer's Solution (Fuso Pharmaceutical Co. Ltd.) was used in the operation and was allowed to perfuse the portal veins and the liver, the respective agents were infused from the portal veins into the liver at a speed of 5 ml/min. After allowing to stand in the culture solution for 30 minutes, the liver into which the gene had been transferred was grafted to the LEW rat.
A model similar to that in Example 2 was used to judge the therapeutic effect of the IDO protein prepared in Example 5. The IDO protein was administered consecutive days through the tail vein immediately after the liver transplantation at a dosage of 300 μg/rat.

The subject of test [2] is spleen cells derived from PVG rat and mitomycin-treated DA rat. The experiment in a line: Lymphocyte mixed culture test (BrdU incorporation). Format: cell-based. The conditions noted are these: 4 days culture, BrdU 10 μM for last 16 hours; FIG. 2. Here is the method: To study the immunosuppressive activity of the human IDO protein prepared in Example 10, a lymphocyte mixed culture test was carried out. The spleen cells derived from a non-treated PVG rat and the spleen cells derived from a DA rat treated with 25 μg/ml of mitomycin (SIGMA-Aldrich Corporation) were seeded on a U bottom 96-well plate (NUNC Inc.) at 5×10^4/well and at 8×10^6/well, respectively. The IDO protein was then added and culturing was done for 4 days. Sixteen hours before the finish of culturing 5-bromo-2′deoxyuridine (BrdU) was added at a final concentration of 10 μM. The amount of BrdU incorporated into the intracellular DNA was quantified using a BrdU Labeling & Detection Kit III (Roche Diagnostics Inc.).
In general terms: Incorporation of labelled thymidine or its analogues reports DNA synthesis.

B1: IDO protein: Recombinant murine indoleamine 2,3-dioxygenase protein prepared in Example 5 from E. coli (protein, UniProt P28776 1-407, looked up)
Indoleamine 2,3-dioxygenase 1: MALSKISPTEGSRRILEDHHIDEDVGFALPHPLVELPDAYSPWVLVARNLPVLIENGQLREEVEKLPTLSTDGLRGHRLQRLAHLALGYITMAYVWNRGDDDVRKVLPRNIAVPYCELSEKLGLPPILSYADCVLANWKKKDPNGPMTYENMDILFSFPGGDCDKGFFLVSLLVEIAASPAIKAIPTVSSAVERQDLKALEKALHDIATSLEKAKEIFKRMRDFVDPDTFFHVLRIYLSGWKCSSKLPEGLLYEGVWDTPKMFSGGSAGQSSIFQSLDVLLGIKHEAGKESPAEFLQEMREYMPPAHRNFLFFLESAPPVREFVISRHNEDLTKAYNECVNGLVSVRKFHLAIVDTYIMKPSKKKPTDGDKSEEPSNVESRGTGGTNPMTFLRSVKDTTEKALLSWP
modifications: recombinant, E. coli
As to B1, the “average days of take (survival)” value in test [1] (50 μg/rat) is 10.6 days; in test [1] (300 μg/rat) it was >30 days. Moreover, the “days of take of the liver graft (in words)” value in test [1] (300 μg/rat, tail vein, consecutive days) is “marked increase”. Also, the “immunosuppressive activity (amount of BrdU incorporated into intracellular DNA)” value in test [2] is given as “immunosuppressive effect was observed”.
